Among the data in paper PMC8526164 are Kd values, retold here.

Usually Kd stands for the free concentration of one partner at which half of the binding sites on the other are occupied at equilibrium, for simple one-to-one binding. A lower Kd goes with higher affinity.

For data set [1], the system named is AtEndoV (WT) (Arabidopsis thaliana). Put plainly: SPR. The following applies: SPR (ProteOn XPR36, NLC chip): PBS, 0.005% Tween 20, pH 7.4, 1 mM EDTA, no divalent metal, 25 C, protein 31.25-500 nM.
Data set [2] deals with AtEndoV (Y100A) (Arabidopsis thaliana). Put plainly: SPR. The note with it: SPR (ProteOn XPR36, NLC chip): PBS, 0.005% Tween 20, pH 7.4, 1 mM EDTA, no divalent metal, 25 C, protein 31.25-500 nM.
Where [3] appears, read: N at position 11 = deoxyinosine.

For the sequence CUGUAUGAUGNAGAUGCUGAC [ssRNA(I) 21-mer], the Kd worked out at 0.002 µM in data set [1] (N at position 11 = inosine) and 0.12 µM in data set [2] (N at position 11 = inosine).
Consider “CTGTATGATGNAGATGCTGAC [ssDNA(dI) 21-mer]”, for which the figures for the Kd in data set [1] (setting [3]) and in data set [2] (setting [3]) were 220 µM and 160 µM, respectively.
